# Data reported in article PMC12177098, “A human-like glutaminase-free asparaginase is highly efficacious in ASNS^low leukemia and solid cancer mouse xenograft models” (Cancer letters, 2024).
# Changes are numbered by the printed parent chain. Names may count otherwise.
# T1: E. coli L-ASNase (EcA) (Escherichia coli, UniProt P00805)
# T1 construct: gene ansB; made in cytosol of E. coli C41(DE3) from His6-SUMO-pET14b, His-SUMO tag cut with SUMO protease, gel filtration; family forms tetramers
# T1 sequence (P00805 23-348): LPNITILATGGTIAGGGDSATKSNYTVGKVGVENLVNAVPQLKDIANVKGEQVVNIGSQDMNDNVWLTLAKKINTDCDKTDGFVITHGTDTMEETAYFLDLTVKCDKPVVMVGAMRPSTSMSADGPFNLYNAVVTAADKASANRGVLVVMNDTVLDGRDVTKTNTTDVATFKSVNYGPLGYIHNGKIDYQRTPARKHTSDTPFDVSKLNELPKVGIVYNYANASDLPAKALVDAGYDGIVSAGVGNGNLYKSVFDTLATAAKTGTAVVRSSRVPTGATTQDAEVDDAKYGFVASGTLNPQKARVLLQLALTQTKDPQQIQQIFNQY
# B1: E. coli L-ASNase (EcA) (Escherichia coli K-12) (protein)
# chain: T1 sequence (P00805 23-348)
# notes: made in cytosol of E. coli C41(DE3) from His6-SUMO-pET14b, His-SUMO tag cut with SUMO protease, gel filtration; family forms tetramers
# B2: E. coli L-ASNase (EcA) (Escherichia coli K-12; Q81L) (protein)
# chain: T1 sequence (P00805 23-348) with Q59L
# Assays:
# EBD-200 = target: T2, EBD-200 (Cavia porcellus, UniProt H0W0T5); details: read-out: EBD-200 ^a; 50 mM Tris-HCl pH 7.5, 200 mM NaCl, 37 °C
# T2 construct: gene ASPG
# Source text: continuous coupled NADH spectrophotometric assay (malic dehydrogenase / glutamic-oxalacetic transaminase) on EBD-200
# E. coli L-ASNase (EcA) = target: T1, E. coli L-ASNase (EcA); experiment: continuous coupled NADH assay (L-glutamic dehydrogenase); NMR; assay type: biochemical; details: 5 mM GLN, 10 nM enzyme (spectrophotometric); 0.1 and 2 μM enzyme (NMR)
# [1] = substrate: NC(=O)C[C@H](N)C(=O)O; experiment: continuous coupled NADH spectrophotometric assay (malic dehydrogenase / glutamic-oxalacetic transaminase); assay type: biochemical, Escherichia coli; details: 50 mM Tris-HCl pH 7.5, 200 mM NaCl, 37 °C
# purified protein = substrate: NC(=O)C[C@H](N)C(=O)O; experiment: purified protein; details: 50 mM Tris-HCl pH 7.5, 200 mM NaCl, 37 °C, in-house preparation, 0.6 % WT contamination, printed as >1.4 mM
# T2 sequence (H0W0T5 1-359): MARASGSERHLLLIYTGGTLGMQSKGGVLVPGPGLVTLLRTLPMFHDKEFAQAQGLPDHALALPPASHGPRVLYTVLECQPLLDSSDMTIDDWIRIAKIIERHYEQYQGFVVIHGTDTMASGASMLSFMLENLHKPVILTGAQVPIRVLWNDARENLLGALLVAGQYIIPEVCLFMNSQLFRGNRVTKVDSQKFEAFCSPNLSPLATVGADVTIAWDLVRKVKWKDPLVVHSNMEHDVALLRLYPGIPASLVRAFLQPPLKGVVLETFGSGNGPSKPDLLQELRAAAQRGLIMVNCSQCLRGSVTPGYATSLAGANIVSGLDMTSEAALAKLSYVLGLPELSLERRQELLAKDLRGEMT
molecule,measurement,setting,value
NC(=O)C[C@H](N)C(=O)O [L-ASN],Km,EBD-200,41.3 ± 0.7 µM
NC(=O)CC[C@H](N)C(=O)O [L-GLN],continuous coupled NADH assay (L-glutamic dehydrogenase); NMR,E. coli L-ASNase (EcA),GLNase activity is easily observed by EcA but not by EBD-200
B1,Km,[1],14 µM
same,kcat,[1],44 s⁻¹
B2,Km,purified protein,1400 µM
same,kcat,purified protein,1.3 s⁻¹
